For the assay, the target named is T1, CsdE-myc-His6 (E. coli K12 MG1655), P0AGF2.
T1 chain: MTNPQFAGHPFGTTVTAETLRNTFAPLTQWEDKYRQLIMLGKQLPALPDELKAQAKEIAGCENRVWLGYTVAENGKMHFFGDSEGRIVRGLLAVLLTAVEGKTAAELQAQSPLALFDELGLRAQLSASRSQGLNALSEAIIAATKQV
Put plainly: affinity purification with mass spectrometry. To be noted: remark: other sources report otherwise.

The values that follow come from article PMC2990340.

B1: CsdE-myc-His6, P0AGF2 1-147 (natural protein)
chain: MTNPQFAGHPFGTTVTAETLRNTFAPLTQWEDKYRQLIMLGKQLPALPDELKAQAKEIAGCENRVWLGYTVAENGKMHFFGDSEGRIVRGLLAVLLTAVEGKTAAELQAQSPLALFDELGLRAQLSASRSQGLNALSEAIIAATKQV
B1: the stoichiometry N turned out to be 2.

By stoichiometry N is commonly meant the number of molecules, sites or subunits per partner or assembly.
